The values that follow come from US20240409614A1 (DANMARKS TEKNISKE UNIVERSITET, published 2024).

Changes are numbered by the printed parent chain. In names and notes the source's numbering stands.

The experiment deals with elastase (EnzChek Elastase Assay kit, Invitrogen). Put plainly: cell-based or functional assay.

B1: A1AT-M351V/L353A/M358V (other)
chain: EDPQGDAAQKTDTSHHDQDHPTFNKITPNLAEFAFSLYRQLAHQSNSTNIFFSPVSIATAFAMLSLGTKADTHDEILEGLNFNLTEIPEAQIHEGFQELLRTLNQPDSQLQLTTGNGLFLSEGLKLVDKFLEDVKKLYHSEAFTVNFGDTEEAKKQINDYVEKGTQGKIVDLVKELDRDTVFALVNYIFFKGKWERPFEVKDTEEEDFHVDQVTTVKVPMMKRLGMFNIQHCKKLSSWVLLMKYLGNATAIFFLPDEGKLQHLENELTHDIITKFLENEDRRSASLHLPKLSITGTYDLKSVLGQLGITKVFSNGADLSGVTEEAPLKLSKAVHKAVLTIDEKGTEAAGAVFAEAIPVSIPPEVKFNKPFVFLMIEQNTKSPLFMGKVVNPTQK
For the molecule B1, the “IC50 (anti-elastase activity), first determination” value (“IC50 … first determination” for short) is 74.6 nM and the “IC50 (anti-elastase activity), second determination” value (shortened to “IC50 … second determination”) was found to be 78.2 nM.

B2: A1AT-M351V/L353T/M358V (other)
chain: B1 chain with A353T
For B2, the “IC50 … first determination” value was determined as 98.9 nM and the “IC50 … second determination” value is 115 nM.

B3: A1AT-M351V/L353S/M358V (other)
chain: B1 chain with A353S
As to B3, the “IC50 … first determination” value was 86.9 nM and the “IC50 … second determination” value came to 108 nM.
